Results from article PMC5149108.

Columns and labels:
Assay in all cases: fluorescence anisotropy
A1-FL (hnRNPA1) = A1-FL (hnRNPA1) (UniProt P09651 1-251+304-372, internal_change)
A1-LCD = A1-LCD (UniProt P09651 186-251+304-372, internal_change)
A1-RRM = A1-RRM (UniProt P09651 14-184)

Measured: binding result

B1: fl-RNA44 (ssRNA)
RNA: GGGCCCCCGGGUACCGAGCUGCUAAUCAAAACAAAACAAAAGCU
binds: all assays above
